Measurements taken from PMC8885419, “Identification and mechanism of G protein-biased ligands for chemokine receptor CCR1” (Nature Chemical Biology, 2021).

T1: wild-type full-length human CCR1 fused with LgBiT at the C terminus (cryo-EM construct) (human, UniProt P32246 1-355)
T1 construct: chemokine receptor CCR1, human, wild type, full length; Expressed with a chemokine (CCL15 (26–92), CCL15 (27–92), or CCL3 (4–69) for the apo complex) fused to its N terminus by a GS linker with a TEV site; the linker was cut with TEV protease and 2*MBP removed with 3C protease; Also used here as the target of the functional rows on wild-type CCR1 in cells, whose construct for the G protein …
T1 sequence (looked up): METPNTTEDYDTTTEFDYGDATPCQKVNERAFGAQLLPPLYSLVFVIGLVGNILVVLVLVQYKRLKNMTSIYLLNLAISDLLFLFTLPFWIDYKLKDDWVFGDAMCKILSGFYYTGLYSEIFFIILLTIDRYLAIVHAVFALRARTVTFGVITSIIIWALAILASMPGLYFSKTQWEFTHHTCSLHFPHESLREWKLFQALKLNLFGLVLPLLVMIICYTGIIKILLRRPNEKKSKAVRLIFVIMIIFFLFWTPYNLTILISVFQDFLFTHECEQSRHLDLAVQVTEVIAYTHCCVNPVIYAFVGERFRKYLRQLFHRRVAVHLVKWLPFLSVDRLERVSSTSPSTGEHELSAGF


Legend:
β-arrestin2 (βarr2) = assay: β-arrestin2 recruitment dose-response (method not named for this panel; panel d of the same figure is NanoBiT); details: agonist CCL15M (CCL15 27-92) at 1e-6 M (highest dose); parent: est. 100; read off a plot
[1] = molecular target: T1, wild-type full-length human CCR1 fused …; assay: cryo-EM structure; CCL15-bound CCR1–Gi complexes (CCL15^L, CCL15^M); chemokine expressed fused to CCR1 and cut with TEV; co-expressed with Gi in SF9; NanoBiT tethering of CCR1-LgBiT and Gβ1-SmBiT; scFv16 added; 20 mM HEPES pH 7.5, 100 mM NaCl, LMNG/CHS/GDN; details: both partners purified

Row | Molecule | percent of parent (% wild-type/CCL15M max) (β-arrestin2 (βarr2)) | binding result [1]
1 | CCR1 (1–327 aa) with LgBiT at the C terminal (from UniProt P32246) T86A; W90A | 81 | –
2 | CCR1 (1–327 aa) with LgBiT at the C terminal (from UniProt P32246) Y113F; Y255F | 85 | –
3 | CCL15 (26–92) (ligand, human, UniProt Q16663 47-113, looked up, chemokine CCL15, human, residues 26–92 of CCL15 (1–92), first residue F26; also called CCL15^L; long form CCL15; source: SF9 insect cells, expressed fused to the N terminus of CCR1, cut with TEV protease, purified in the complex) FHFAADCCTSYISQSIPCSLMKSYFETSSECSKPGVIFLTKKGRQVCAKPSGPGVQDCMKKLKPYSI | – | binds
4 | CCL15 (27–92) (ligand, human, UniProt Q16663 48-113, looked up, chemokine CCL15, human, residues 27–92 of CCL15 (1–92); In the cryo-EM sample residues of the GS/TEV linker may remain at the C terminus; also called CCL15^M; medium form CCL15; source: SF9 insect cells, expressed fused to the N terminus of CCR1, cut with TEV protease, purified in the complex) HFAADCCTSYISQSIPCSLMKSYFETSSECSKPGVIFLTKKGRQVCAKPSGPGVQDCMKKLKPYSI | – | binds
